According to patent publication US20210309710A1 (DAEWOONG PHARMACEUTICAL, published 2021):

Biological target: Recombinant human serum albumin (human, UniProt P02768 25-609)
Assay: SPR (BIACORE 3000), recombinant HSA immobilized on CM5 chip
Description: To measure the binding affinities of the ABD-fused insulin analogue proteins for albumin, a surface plasmon resonance (SPR, BIACORE 3000, GE healthcare) analysis method was used. Recombinant human serum albumin was immobilized on a CM5 chip by an amine coupling method, and the ABD or ABD-fused insulin analogues diluted to five or more concentrations were bound thereto, and the affinities thereof for the human serum albumin were measured.

Sequence of Recombinant human serum albumin (P02768 25-609 limits assumed): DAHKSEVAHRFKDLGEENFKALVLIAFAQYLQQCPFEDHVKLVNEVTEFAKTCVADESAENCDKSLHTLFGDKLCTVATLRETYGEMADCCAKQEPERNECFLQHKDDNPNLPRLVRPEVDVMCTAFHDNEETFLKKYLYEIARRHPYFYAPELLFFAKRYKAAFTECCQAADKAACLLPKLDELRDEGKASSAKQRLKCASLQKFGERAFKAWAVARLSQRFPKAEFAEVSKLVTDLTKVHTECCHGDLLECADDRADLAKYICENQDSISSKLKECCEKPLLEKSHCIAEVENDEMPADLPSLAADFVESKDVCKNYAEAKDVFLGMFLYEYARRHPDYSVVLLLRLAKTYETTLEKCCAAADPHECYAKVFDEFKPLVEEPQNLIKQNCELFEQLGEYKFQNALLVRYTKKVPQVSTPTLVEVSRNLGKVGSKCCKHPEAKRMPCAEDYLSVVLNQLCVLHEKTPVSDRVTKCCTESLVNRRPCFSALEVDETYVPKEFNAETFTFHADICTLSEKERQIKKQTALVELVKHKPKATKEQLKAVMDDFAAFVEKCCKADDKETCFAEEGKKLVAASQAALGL

Kd: 7.29 pM
koff: 2.41e-05 s⁻¹
kon: 5.93e+06 M⁻¹ s⁻¹
Binder: LAEAKEAANAELDSYGVSDFYKKLIDKAKTVEGVEALKDAILAALP (designed binder) [albumin-binding domain (ABD)]
